In patent US6451992:

System: thrombostasin (thrombin inhibitor of Haematobia irritans saliva; tested as whole serotonin-induced saliva)

## bovine thrombin
  rates of hydrolysis of chromogenic substrate S238 (2.5-100 µM) by bovine thrombin (250 pM) alone and in the presence of horn fly saliva (equivalent to 2 flies): it may be a competitive inhibitor, as its effect is diminished when substrate is unlimited (100 µM)
